Reference: patent US20080286284A1 (published 2008)
Numbering of substitutions follows the chain as printed. Several values for one entry are separate records, joined by “and”; a condition that tells them apart may be missing. Equal values may be shown once.

What was measured:
[1] = biological target: T1, prostate specific membrane antigen (PSMA), full-length human (human, UniProt Q04609 1-750); test: FACS, C4-2 cells
T1 construct: also called cell-surface PSMA; full-length PSMA

[2] = biological target: T2, recombinant soluble PSMA (rsPSMA) (human, UniProt Q04609 44-750); test: Biacore, captured mAb, rsPSMA in flow
T2 construct: also called rsPSMA dimer; secreted rsPSMA
T2 sequence (Q04609 44-750): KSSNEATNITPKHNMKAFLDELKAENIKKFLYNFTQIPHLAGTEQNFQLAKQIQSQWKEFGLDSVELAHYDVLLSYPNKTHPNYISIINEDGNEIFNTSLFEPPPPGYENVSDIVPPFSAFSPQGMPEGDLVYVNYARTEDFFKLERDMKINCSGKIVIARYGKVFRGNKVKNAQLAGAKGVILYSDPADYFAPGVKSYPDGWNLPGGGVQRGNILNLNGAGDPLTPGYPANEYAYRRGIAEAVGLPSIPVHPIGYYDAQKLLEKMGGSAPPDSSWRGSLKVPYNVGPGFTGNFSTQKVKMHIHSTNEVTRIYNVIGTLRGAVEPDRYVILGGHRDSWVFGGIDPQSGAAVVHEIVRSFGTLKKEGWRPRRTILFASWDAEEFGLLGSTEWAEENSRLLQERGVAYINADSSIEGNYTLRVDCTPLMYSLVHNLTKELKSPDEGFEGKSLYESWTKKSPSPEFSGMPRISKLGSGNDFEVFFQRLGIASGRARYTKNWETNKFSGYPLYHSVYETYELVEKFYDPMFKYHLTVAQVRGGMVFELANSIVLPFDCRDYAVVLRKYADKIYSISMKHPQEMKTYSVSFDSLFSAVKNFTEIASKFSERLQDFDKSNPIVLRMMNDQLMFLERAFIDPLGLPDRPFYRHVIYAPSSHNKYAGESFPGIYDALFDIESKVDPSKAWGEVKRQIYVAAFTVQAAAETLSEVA
Procedure: (§1) To determine the kinetics and affinity of the antibodies, the antibodies in crude supernatants, in purified form and in bifunctional chelate modified forms were analyzed using a Biacore 3000 instrument (Biacore Inc., Piscataway, N.J.). Biacore 3000 is a fully automated surface plasmon resonance (SPR)-based biosensor system that is designed to provide real-time kinetic data from assay formats that require no tags or labeling of compounds for biomolecular interactions. It is ideal for screening crude supernatants.
(§2) The streptavidin-coated sensor chips (SA chips, Biacore) were used to capture biotinylated anti-human IgG antibody (Sigma, St. Louis, Mo.). The entire sensor chip surface was conditioned with five injections of conditioning solution (1 M NaCl, 50 mM NaOH) and equilibrated with PBS buffer containing 0.005% polysorbate 20. Two to three thousand resonance units (RU) of biotinylated anti-human IgG antibody (Sigma) were immobilized onto the SA chip followed by an injection of regeneration buffer (glycine-HCl, pH 2.2). […] For each antibody at one concentration, the chip was regenerated and equilibrated. […] Thermodynamic and kinetic rate constants of binding were calculated using the Biacore Evaluation software.

[3] = biological target: T2, recombinant soluble PSMA (rsPSMA); test: Biacore, rsPSMA
Procedure: as §2

[4] = biological target: T1, prostate specific membrane antigen …; test: lysate EIA, supernatant
[5] = biological target: T2, recombinant soluble PSMA (rsPSMA); test: Biacore; Avg KD of purified 006
Procedure: as §1, §2

[6] = biological target: T1, prostate specific membrane antigen …; test: FACS, 3T3-PSMA cells
Procedure: Control anti-human IgG (Caltag, Burlingame, Calif.) was used to establish background binding. After two washes in PBS, the cells were incubated with anti-human IgG (BD Pharmingen, San Diego, Calif.) for 30 minutes on ice. Cells were washed twice in PBS, resuspended in 250 μl PBS and analyzed by flow cytometry using a FACScan machine (Becton Dickinson, Franklin Lakes, N.J.) and CellQuest software. Viable cells were gated by forward scatter and side scatter parameters, and binding was quantified using histogram plots of mean fluorescence intensity (MFI) levels.

[7] = biological target: T2, recombinant soluble PSMA (rsPSMA); test: cell-based or functional assay
[8] = biological target: T2, recombinant soluble PSMA (rsPSMA); test: Biacore; Avg KD
Procedure: as §1, §2

[9] = biological target: T1, prostate specific membrane antigen …; test: FACS, supernatant
[10] = biological target: T1, prostate specific membrane antigen …; test: cell-based or functional assay
[11] = biological target: T2, recombinant soluble PSMA (rsPSMA); test: Biacore; Avg KD of purified 10.3
Procedure: as §1, §2

T1 sequence (Q04609 whole entry): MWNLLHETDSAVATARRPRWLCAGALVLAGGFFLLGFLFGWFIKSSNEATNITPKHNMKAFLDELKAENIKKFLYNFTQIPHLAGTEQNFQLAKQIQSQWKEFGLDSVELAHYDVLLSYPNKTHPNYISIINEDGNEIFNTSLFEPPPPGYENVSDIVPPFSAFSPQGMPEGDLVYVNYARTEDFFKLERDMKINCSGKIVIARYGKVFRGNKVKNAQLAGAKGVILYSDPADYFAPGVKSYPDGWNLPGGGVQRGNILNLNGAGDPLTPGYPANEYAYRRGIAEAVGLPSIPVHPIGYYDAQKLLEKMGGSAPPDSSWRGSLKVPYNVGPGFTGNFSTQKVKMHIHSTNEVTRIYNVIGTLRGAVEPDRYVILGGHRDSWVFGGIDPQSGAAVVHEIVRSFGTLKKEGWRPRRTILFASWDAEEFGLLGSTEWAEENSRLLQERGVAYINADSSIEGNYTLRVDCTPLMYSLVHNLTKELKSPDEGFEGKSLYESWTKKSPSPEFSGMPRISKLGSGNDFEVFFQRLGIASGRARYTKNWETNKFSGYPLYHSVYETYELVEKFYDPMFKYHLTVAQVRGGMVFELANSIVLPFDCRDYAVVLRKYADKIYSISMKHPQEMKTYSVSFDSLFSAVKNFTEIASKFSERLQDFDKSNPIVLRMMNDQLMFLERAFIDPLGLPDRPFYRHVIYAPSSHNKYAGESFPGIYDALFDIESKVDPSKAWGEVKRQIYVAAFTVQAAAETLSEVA

B1: AB-PG1-XG1-006 (antibody, V domains shown)
VH: QVQLVESGGGVVQPGRSLRLSCAASGFAFSRYGMHWVRQAPGKGLEWVAVIWYDGSNKYYADSVKGRFTISRDNSKNTQYLQMNSLRAEDTAVYYCARGGDFLYYYYYGMDVWGQGTTVTVSS
VL: DIQMTQSPSSLSASVGDRVTITCRASQGISNYLAWYQQKTGKVPKFLIYEASTLQSGVPSRFSGGGSGTDFTLTISSLQPEDVATYYCQNYNSAPFTFGPGTKVDIK
notes: also called XG-006; PRGX1-XG1-006
C4.2 FACS [1]: 9.5 | Kd [2]: 0.466 nM and 0.562 nM and 0.492 nM | koff [2]: 0.000137 s⁻¹ and 0.000127 s⁻¹ and 6.4e-05 s⁻¹ | kon [2]: 294000 M⁻¹ s⁻¹ and 226000 M⁻¹ s⁻¹ and 130000 M⁻¹ s⁻¹ | Kd [3]: 0.48 nM | koff [3]: 6.4e-05 s⁻¹ | kon [3]: 130000 M⁻¹ s⁻¹ | Lysate EIA [4]: 0.39 | Kd [5]: 0.514 nM | AVG Max binding [6]: 183 | IC50, folate hydrolase activity [7]: 9.34 µg/mL | Kd [8]: 0.492 nM | PGNX FACS [9]: 114

B2: AB-PG1-XG1-069 (antibody, V domains shown)
VH: EVQLVQSGAEVKKPGESLKISCKGSGYSFTSYWIGWVRQMPGKGLEWMGIIYPGDSDTRYSPSFQGQVTISADKSISTAYLQWSSLKASDTAMYYCARRMAAAGPFDYWGQGTLVTVSS
VL: GIVMTQSPATLSVSPGERATLSCRTSQSIGWNLAWYQQKPGQAPRLLIYGASSRTTGIPARFSGSGSGTEFTLTISSLQSEDSAVYYCQHYDNWPMCSFGQGTELEIK
notes: also called PRGX1-XG1-069
binding result [3]: no binding | AVG Max binding [6]: 71

B3: AB-PG1-XG1-077 (antibody, V domains shown)
VH: QVQLVESGGGVVQPGRSLRLSCAASGFTFISYGMHWVRQAPGKGLEWVAVISYDGSNKYYADSVKGRFTISRDNSKNTLYLQMNSLRAEDTAVYYCARVLVGALYYYNYYGMDVWGQGTTVTVSS
VL: DIVMTQTPLSLSVTPGQPASISCKSSQSLLHSDGKTFLYWYLQKPGQPPQLLIYEVSNRFSGVPDRFSGSGSGTDFTLKISRVEAEDVGLYYCMQSIQLPLTFGGGTKVEIK
notes: also called PRGX1-XG1-077
C4.2 FACS [1]: 12.4 | Kd [3]: 1.6 nM | koff [3]: 0.000104 s⁻¹ | kon [3]: 60000 M⁻¹ s⁻¹ | Lysate EIA [4]: 0.45 | AVG Max binding [6]: 227 | PGNX FACS [9]: 392

B4: ^225Ac labeled mAb 026 (antibody, V domains shown)
VH: QVQLVESGGGVVQPGRSLRLSCAASGFTFSNYVMHWVRQAPGKGLEWVAIIWYDGSNKYYADSVKGRFTISRDNSKNTLYLQMNSLRAEDTAVYYCAGGYNWNYEYHYYGMDVWGQGTTVTVSS
VL: DIQMTQSPSSLSASVGDRVTITCRASQGITNYLAWFQQKPGKAPKSLIYAASSLQSGVPSKFSGSGSGTDFSLTISSLQPEDFATYYCQQYNSYPITFGQGTRLEIK
IC50, ^3H thymidine incorporation, C4-2 cells [10]: 0.12 nCi/mL | IC50, cytotoxicity on C4-2 and LNCaP cells [10]: < 1 nCi/mL | selectivity of killing vs. control antibody (HuIgG) [10]: > 50 fold | selectivity of killing vs. control mAb (HuM195) [10]: > 100 fold | selectivity of killing, C4-2 vs. PC3 [10]: > 50 fold

B5: AB-PG1-XG1-051 (antibody, V domains shown)
VH: QVQLVESGGGVVQPGRSLRLSCAASGFTFSSYGMHWVRQAPGKGLDWVAIIWHDGSNKYYADSVKGRFTISRDNSKKTLYLQMNSLRAEDTAVYYCARAWAYDYGDYEYYFGMDVWGQGTTVTVSS
VL: B4 VL with T30S, N31H, S72T, Y94F, I96L, Q100G, R103K, L104V
notes: also called XG-051; PRGX1-XG1-051
C4.2 FACS [1]: 9.9 | Kd [3]: 0.58 nM | koff [3]: 8.2e-05 s⁻¹ | kon [3]: 140000 M⁻¹ s⁻¹ | Lysate EIA [4]: 0.48 | AVG Max binding [6]: 202 | PGNX FACS [9]: 83

B6: AB-PG1-XG1-026 (antibody, V domains shown)
VH: B4 VH
VL: B4 VL
notes: also called XG-026; PRGX1-XG1-026
Kd [3]: 0.2 nM | koff [3]: 2.9e-05 s⁻¹ | kon [3]: 150000 M⁻¹ s⁻¹ | AVG Max binding [6]: 148 | IC50, folate hydrolase activity [7]: 1.39 µg/mL

B7: PSMA 10.3 (antibody, V domains shown)
VH: QEQLVESGGGVVQPGRSLRLSCAASGFTFSTYGMHWVRQAPGKGLEWVAVTWHDGSNKYYADSVKGRFTISRDNSKNTLYLQMNSLRAEDTAVYYCARGGVGATYYYYYGMDVWGQGTTVTVSS
VL: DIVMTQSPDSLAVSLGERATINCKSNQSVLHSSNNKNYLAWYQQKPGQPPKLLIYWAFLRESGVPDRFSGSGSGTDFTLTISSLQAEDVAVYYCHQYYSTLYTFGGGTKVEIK
kon [2]: 190000 M⁻¹ s⁻¹ and 328000 M⁻¹ s⁻¹ and 296000 M⁻¹ s⁻¹ | Kd [3]: 1.9 nM | koff [3]: 0.000364 s⁻¹ | kon [3]: 190000 M⁻¹ s⁻¹ | Lysate EIA [4]: 1.06 | AVG Max binding [6]: 181 | Kd [11]: 0.205 nM | Kd [8]: 1.91 nM
